B1: C20orf112 (parent)
chain: YANGGLNYSYRGYGALSSNLQPPA
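Note: lentivirally expressed fusions sorted by FACS into six bins by GFP to DsRed ratio, PSI derived from sequencing read proportions per bin multiplied by bin number.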

Variants of B1 are the subject of the data set. Briefly: protein stability index of a GFP-peptide fusion (GPS, HEK-293T) (PSI 1-6); higher = more stable. The following applies: c terminus: a fixed tail appended.
For the variant YANGGLNYSYRGYGALSSNLQHPA [P22H], the protein stability index was determined as 1.94.
Under YANGGLNYSYRGYGALSSNLQKPA [P22K] stands 2.66; under YANGGLNYSYRGYGALSSNLQDPA [P22D], 1.6.
In the case of YANGGLNYSYRGYGALSSNLQYPA [P22Y], the protein stability index was 3.09.
Under YANGGLNYSYRGYGALSSNLQSPA [P22S] stands 1.62; under YANGGLNYSYRGYGALSSNLQNPA [P22N], 2.33; under YANGGLNYSYRGYGALSSNLQQPA [P22Q], 2.
Under YANGGLNYSYRGYGALSSNLQMPA [P22M] stands 1.63.
Under YANGGLNYSYRGYGALSSNLQIPA [P22I] stands 2.35; under YANGGLNYSYRGYGALSSNLQWPA [P22W], 1.97; under YANGGLNYSYRGYGALSSNLQRPA [P22R], 1.76.
Turning to YANGGLNYSYRGYGALSSNLQGPA [P22G], the protein stability index is 2.65.
Under YANGGLNYSYRGYGALSSNLQVPA [P22V] stands 1.83; under YANGGLNYSYRGYGALSSNLQEPA [P22E], 2.41.
Take YANGGLNYSYRGYGALSSNLQAPA [P22A]: the protein stability index is 1.5.
Under YANGGLNYSYRGYGALSSNLQLPA [P22L] stands 2.27; under YANGGLNYSYRGYGALSSNLQCPA [P22C], 2.97.
The result for YANGGLNYSYRGYGALSSNLQFPA [P22F] reads 3.69; that for YANGGLNYSYRGYGALSSNLQTPA [P22T], 1.71; that for YANGGLNYSYRGYGALSTNLQPPA [S18T], 2.05.
Under YANGGLNYSYRGYGALSVNLQPPA [S18V] stands 1.73.
Consider YANGGLNYSYRGYGALSWNLQPPA [S18W], for which the protein stability index amounted to 2.07.
Under YANGGLNYSYRGYGALSQNLQPPA [S18Q] stands 2.6; under YANGGLNYSYRGYGALSYNLQPPA [S18Y], 1.67; under YANGGLNYSYRGYGALSRNLQPPA [S18R], 2.21.
Under YANGGLNYSYRGYGALSSNWQPPA [L20W] stands 1.84; under YANGGLNYSYRGYGALSSNYQPPA [L20Y], 1.34.
The result for YANGGLNYSYRGYGALSSNCQPPA [L20C] reads 2.7; that for YANGGLNYSYRGYGALSSNSQPPA [L20S], 2.34; that for YANGGLNYSYRGYGALSSNPQPPA [L20P], 1.88.
On to YANGGLNYSYRGYGALSSNQQPPA [L20Q], for which the protein stability index is 1.71.
Under YANGGLNYSYRGYGALSSNTQPPA [L20T] stands 1.55.
Under YANGGLNYSYRGYGALSSNRQPPA [L20R] stands 1.73; under YANGGLNYSYRGYGALSSNMQPPA [L20M], 1.52.
The result for YANGGLNYSYRGYGALSSNFQPPA [L20F] reads 1.55.
Take YANGGLNYSYRGYGALSSNHQPPA [L20H]: the protein stability index stood at 1.69.
Under YANGGLNYSYRGYGALSSNIQPPA [L20I] stands 2.54.
Under YANGGLNYSYRGYGALSSNVQPPA [L20V] stands 1.84; under YANGGLNYSYRGYGALSSNGQPPA [L20G], 2.28; under YANGGLNYSYRGYGALSSNEQPPA [L20E], 1.37.
Under YANGGLNYSYRGYGALSSNKQPPA [L20K] stands 2.27.
Consider YANGGLNYSYRGYGALSSNAQPPA [L20A], for which the protein stability index turned out to be 1.79.
The result for YANGGLNYSYRGYGALSSNNQPPA [L20N] reads 2.11; that for YANGGLNYSYRGYGALSSNDQPPA [L20D], 1.36.
For YANGGLNYSYRGYGALSSNLFPPA [Q21F], the protein stability index was found to be 2.26.
The result for YANGGLNYSYRGYGALSSNLSPPA [Q21S] reads 2.5.
The result for YANGGLNYSYRGYGALSSNLIPPA [Q21I] reads 2.76; that for YANGGLNYSYRGYGALSSNLEPPA [Q21E], 2.16.
The result for YANGGLNYSYRGYGALSSNLRPPA [Q21R] reads 1.75; that for YANGGLNYSYRGYGALSSNLPPPA [Q21P], 2.28.
As for YANGGLNYSYRGYGALSSNLGPPA [Q21G], the protein stability index came to 1.21.
The result for YANGGLNYSYRGYGALSSNLCPPA [Q21C] reads 1.74; that for YANGGLNYSYRGYGALSSNLMPPA [Q21M], 1.71.
Under YANGGLNYSYRGYGALSSNLVPPA [Q21V] stands 1.59; under YANGGLNYSYRGYGALSSNLAPPA [Q21A], 1.66.
Under YANGGLNYSYRGYGALSSNLKPPA [Q21K] stands 2.17; under YANGGLNYSYRGYGALSSNLWPPA [Q21W], 1.75; under YANGGLNYSYRGYGALSSNLYPPA [Q21Y], 2.29.
With YANGGLNYSYRGYGALSSNLTPPA [Q21T], the protein stability index turned out to be 2.61.
Under YANGGLNYSYRGYGALSSNLLPPA [Q21L] stands 1.99; under YANGGLNYSYRGYGALSSNLNPPA [Q21N], 1.64; under YANGGLNYSYRGYGALSSNLHPPA [Q21H], 2.04.
Under YANGGLNYSYRGYGALSSNLDPPA [Q21D] stands 2.22; under YANGGLNYSYRGYGALSSWLQPPA [N19W], 2.61.
The result for YANGGLNYSYRGYGALSSALQPPA [N19A] reads 1.71.
Turning to YANGGLNYSYRGYGALSSELQPPA [N19E], the protein stability index stood at 1.11.
Under YANGGLNYSYRGYGALSSILQPPA [N19I] stands 1.71; under YANGGLNYSYRGYGALSSVLQPPA [N19V], 1.99; under YANGGLNYSYRGYGALSSDLQPPA [N19D], 2.15.
Under YANGGLNYSYRGYGALSSYLQPPA [N19Y] stands 1.57; under YANGGLNYSYRGYGALSSTLQPPA [N19T], 1.91.
The result for YANGGLNYSYRGYGALSSSLQPPA [N19S] reads 2.44; that for YANGGLNYSYRGYGALSSKLQPPA [N19K], 2.96; that for YANGGLNYSYRGYGALSSFLQPPA [N19F], 1.53.
In the case of YANGGLNYSYRGYGALSSGLQPPA [N19G], the protein stability index is 1.42.
Under YANGGLNYSYRGYGALSSHLQPPA [N19H] stands 1.43; under YANGGLNYSYRGYGALSSLLQPPA [N19L], 2.53.
The result for YANGGLNYSYRGYGALSSPLQPPA [N19P] reads 2.18; that for YANGGLNYSYRGYGALSSQLQPPA [N19Q], 2.14; that for YANGGLNYSYRGYGALSSCLQPPA [N19C], 2.05.
The result for YANGGLNYSYRGYGALSSRLQPPA [N19R] reads 1.99; that for YANGGLNYSYRGYGALSSMLQPPA [N19M], 1.88; that for YANGGLNYSYRGYGALSSNLQPHA [P23H], 1.34.
In the case of YANGGLNYSYRGYGALSSNLQPKA [P23K], the protein stability index turned out to be 1.97.
The result for YANGGLNYSYRGYGALSSNLQPNA [P23N] reads 2.17; that for YANGGLNYSYRGYGALSSNLQPCA [P23C], 1.92; that for YANGGLNYSYRGYGALSSNLQPMA [P23M], 2.3.
On to YANGGLNYSYRGYGALSSNLQPGA [P23G], for which the protein stability index stood at 2.6.
The result for YANGGLNYSYRGYGALSSNLQPAA [P23A] reads 1.81.
The result for YANGGLNYSYRGYGALSSNLQPLA [P23L] reads 1.54; that for YANGGLNYSYRGYGALSSNLQPIA [P23I], 2.09.
YANGGLNYSYRGYGALSSNLQPEA [P23E]: the protein stability index came to 2.05.
Under YANGGLNYSYRGYGALSSNLQPDA [P23D] stands 2.09; under YANGGLNYSYRGYGALSSNLQPFA [P23F], 2.52.

Values taken from the supplement of paper PMC10567573.
